From patent US20170212130A1

Biological target: S. cerevisiae Nup84-GFP (S. cerevisiae) (UniProt P52891)
Experiment: signal to noise ratio of Coomassie bands, Nup84-GFP affinity isolation on LaG-Dynabeads

Nup84-GFP S:N: 0.1
B1: LaG-8 (VHH)
VHH: QVQLVESGGGLVQHGGSLRLSCVTSGFTFDIHDMGWFRQAPGKERDIVARISKSGDITYYADSVKGRFIISRDNTKNTVYLQMNSLKPEDTAVYYCAATLRATITSFDEYVYRGQGTQVTVS
